# Experimental data taken from paper PMC2171490 (The Journal of Cell Biology, 2005).
# Molecular target: EYFP-HP1β (UniProt P83916 1-185)
# Test: FRET or BRET
# Chain of EYFP-HP1β (P83916 whole entry): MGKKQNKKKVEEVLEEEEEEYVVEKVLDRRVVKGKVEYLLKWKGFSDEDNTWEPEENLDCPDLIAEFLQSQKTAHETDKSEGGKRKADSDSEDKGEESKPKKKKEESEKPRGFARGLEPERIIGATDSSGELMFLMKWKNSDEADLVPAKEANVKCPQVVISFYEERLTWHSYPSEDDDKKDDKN
Binder,mean donor fluorescence lifetime τ Mod [ns],mean donor fluorescence lifetime τφ [ns]
"ECFP–SUV39H1-Nchromo (domain or fragment, human, UniProt O43463-1 3-118, looked up) ENLKGCSVCCKSSWNQLQDLCRLAKLSCPALGISKRNLYDFEVEYLCDYKKIREQEYYLVKWRGYPDSESTWEPRQNLKCVRILKQFHKDLERELLRRHHRSKTPRHLDPSLANYL",2.8,2.2
"ECFP–SUV39H1-ΔSET (domain or fragment, human, UniProt O43463-1 3-249, looked up) ENLKGCSVCCKSSWNQLQDLCRLAKLSCPALGISKRNLYDFEVEYLCDYKKIREQEYYLVKWRGYPDSESTWEPRQNLKCVRILKQFHKDLERELLRRHHRSKTPRHLDPSLANYLVQKAKQRRALRRWEQELNAKRSHLGRITVENEVDLDGPPRAFVYINEYRVGEGITLNQVAVGCECQDCLWAPTGGCCPGASLHKFAYNDQGQVRLRAGLPIYECNSRCRCGYDCPNRVVQKGIRYDLCIFR",2.7,2.1
"ECFP-SUV39H1 (enzyme, human, UniProt O43463-1 1-412, looked up) MAENLKGCSVCCKSSWNQLQDLCRLAKLSCPALGISKRNLYDFEVEYLCDYKKIREQEYYLVKWRGYPDSESTWEPRQNLKCVRILKQFHKDLERELLRRHHRSKTPRHLDPSLANYLVQKAKQRRALRRWEQELNAKRSHLGRITVENEVDLDGPPRAFVYINEYRVGEGITLNQVAVGCECQDCLWAPTGGCCPGASLHKFAYNDQGQVRLRAGLPIYECNSRCRCGYDCPNRVVQKGIRYDLCIFRTDDGRGWGVRTLEKIRKNSFVMEYVGEIITSEEAERRGQIYDRQGATYLFDLDYVEDVYTVDAAYYGNISHFVNHSCDPNLQVYNVFIDNLDERLPRIAFFATRTIRAGEELTFDYNMQVDPVDMESTRMDSNFGLAGLPGSPKKRVRIECKCGTESCRKYLF",2.9,2.2
